Data from the supplement of paper PMC9170038.

System: MS2 coat protein
Experiment: apparent KD of MS2 coat protein; designed switch direction (-1 OFF switch, 1 ON switch): 1; higher = weaker reporter binding
Method in brief: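 SNAP-549-labelled MS2 coat protein was titrated, doubling from 0.7 or 1.5 nM to 3 µM, over designed RNA switches transcribed on Illumina chips by stalled E. coli RNA polymerase. Runs were done without input, with 200 uM small-molecule ligand, or with an oligonucleotide input. Apparent KD is the per-design median over clusters of curve-fitted normalised fluorescence.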

[1] = input ligand: microRNA oligo, concentration not stated
[2] = Eterna round: R95, input ligand: FMN 200 uM
[3] = Eterna round: R95, input ligand: microRNA oligo, concentration not stated
[4] = Eterna round: R95, input ligand: none

## AUUAUUUAUGCAGGAUAUGAUUAACAUGAGGAUCACCCAUGUGGUGUUGUGAGUAAGGAGAGUGAUCAGAAGGGCAUUUUUAUU [JMF's solution 52] (Eterna round: R96, puzzle: Same State NG 2)
Input ligand: FMN 200 uM
  apparent KD of MS2 coat protein: 627 nM
[1]
  apparent KD of MS2 coat protein: 493 nM
Input ligand: none
  apparent KD of MS2 coat protein: 568 nM

## AUUAUUUAUGCAGGAUAUGAUUAACAUGAGGAUCACCCAUGUGGUGUUGUGAGUAAGGAGAGUGAUCAGAAGGGCAUUUUUGUU [JMF's solution 53] (Eterna round: R96, puzzle: Same State NG 2)
Input ligand: FMN 200 uM
  apparent KD of MS2 coat protein: 992 nM
[1]
  apparent KD of MS2 coat protein: 438 nM
Input ligand: none
  apparent KD of MS2 coat protein: 657 nM

## AUUAUUUCAUGAGGAUAUGGCACCUUAUUGGUGCCAGAAGGCAUGUCAUUAGACAUGAGGAUCACCCAUGUAUUAUAUUAUAUA [Fiskers NG1ss - 13] (Eterna round: R96, puzzle: Same State NG 1)
Input ligand: FMN 200 uM
  apparent KD of MS2 coat protein: 41.5 nM
[1]
  apparent KD of MS2 coat protein: 392 nM
Input ligand: none
  apparent KD of MS2 coat protein: 534 nM

## AUUAUUUGUGCAGGAUAUGAUUAACAUGAGGAUCACCCAUGUGGUGUUGUGAGUAAGGAGAGUGAUCAGAAGGGCAUUUUUUUU [JMF's solution 61] (Eterna round: R96, puzzle: Same State NG 2)
Input ligand: FMN 200 uM
  apparent KD of MS2 coat protein: 590 nM
[1]
  apparent KD of MS2 coat protein: 476 nM
Input ligand: none
  apparent KD of MS2 coat protein: 478 nM

## AUUCGUUUGAUAGGAUAUCACUUUACAUGAGGAUCACCCAUGUUCACCACGCUGGUCCCUUAUACUGAGAAGGAUCUUGAUGAC [JR_SSNG2_Sub008] (Eterna round: R96, puzzle: Same State NG 2)
Input ligand: FMN 200 uM
  apparent KD of MS2 coat protein: 107 nM
[1]
  apparent KD of MS2 coat protein: 64.5 nM
Input ligand: none
  apparent KD of MS2 coat protein: 95.7 nM

## AUUGCUUACGCAGGAUAUGAUGCGAAAAUUGCGUCAGAAGGGUGAAGUGACUCAUUGCAACAGGACAUGAGGAUCACCCAUGUC [SameState NG1 #90] (Eterna round: R96, puzzle: Same State NG 1)
Input ligand: FMN 200 uM
  apparent KD of MS2 coat protein: 184 nM
[1]
  apparent KD of MS2 coat protein: 305 nM
Input ligand: none
  apparent KD of MS2 coat protein: 708 nM

## AUUUUCAAUGCAGGAUAUGAUUAACAUGAGGAUCACCCAUGUGGUGUUGUGAGUAAGGAGAGUGAUCAGAAGGGCAUUUUUUUU [JMF's solution 97] (Eterna round: R96, puzzle: Same State NG 2)
Input ligand: FMN 200 uM
  apparent KD of MS2 coat protein: 428 nM
[1]
  apparent KD of MS2 coat protein: 371 nM
Input ligand: none
  apparent KD of MS2 coat protein: 486 nM

## AUUUUUAAUGCAGGAUAUGAUUAACAUGAGGAUCACCCAUGUGGUGUUGUGAGUAAGGAGAGUGAUCAGAAGGGCAUUUUUUAU [JMF's solution 86] (Eterna round: R96, puzzle: Same State NG 2)
Input ligand: FMN 200 uM
  apparent KD of MS2 coat protein: 453 nM
[1]
  apparent KD of MS2 coat protein: 702 nM
Input ligand: none
  apparent KD of MS2 coat protein: 441 nM

## AUUUUUAAUGCAGGAUAUGAUUAACAUGAGGAUCACCCAUGUGGUGUUGUGAGUAAGGAGAGUGAUCAGAAGGGCAUUUUUUCA [SS-NG2-LRO01] (Eterna round: R96, puzzle: Same State NG 2)
Input ligand: FMN 200 uM
  apparent KD of MS2 coat protein: 838 nM
[1]
  apparent KD of MS2 coat protein: 495 nM
Input ligand: none
  apparent KD of MS2 coat protein: 533 nM

## CAAGCUUGGGUCUUCCCGCUCGUCUACAAACAUGAGGAUCACCCAUGUAUACUCUUCGCAUCAAUUCUAUCUCUUGG [Onraenbi] (Eterna round: R96, puzzle: Sensor for hsa-mir-208a)
Input ligand: FMN 200 uM
  apparent KD of MS2 coat protein: 176 nM
[1]
  apparent KD of MS2 coat protein: 23.1 nM
Input ligand: none
  apparent KD of MS2 coat protein: 163 nM

## CAAGCUUGGGUCUUCCCGCUCGUCUACAAACAUGAGGAUCACCCAUGUAUACUCUUCGCAUCAAUUCUAUCUCUUGG [Onraenbi] (puzzle: Sensor for hsa-mir-208a)
[2]
  apparent KD of MS2 coat protein: 210 nM
[3]
  apparent KD of MS2 coat protein: 23.3 nM
[4]
  apparent KD of MS2 coat protein: 272 nM

## CAGAGCCCAUGGGCCUGACAUGAGGAUCACCCAUGUGGCUUUGAGGAUAUAAGCGGAAACACCACUUAGAAGGCGAAGCCUAAC [Bequedbi] (Eterna round: R96, puzzle: Same State NG 3)
Input ligand: FMN 200 uM
  apparent KD of MS2 coat protein: 489 nM
[1]
  apparent KD of MS2 coat protein: 37.1 nM
Input ligand: none
  apparent KD of MS2 coat protein: 11.3 nM

## CAGCACUAUCGAGAGGAUAUGCGGUGAUGGACAUGAGGAUCACCCAUGUUAGCGGUAGCAUCACGGCAGAAGGCUCUGCUGCUGC [Soteed Omei mod 39] (Eterna round: R96, puzzle: Same State 2)
Input ligand: FMN 200 uM
  apparent KD of MS2 coat protein: 19 nM
[1]
  apparent KD of MS2 coat protein: 21.5 nM
Input ligand: none
  apparent KD of MS2 coat protein: 28.5 nM

## CAGCACUAUCGAGAGGAUAUGCGGUGAUGGACAUGAGGAUCACCCAUGUUAGCGGUAGCAUCACGGCAGAAGGCUCUGCUGCUGC [Soteed Omei mod 39] (puzzle: Same State 2)
[2]
  apparent KD of MS2 coat protein: 20.4 nM
[3]
  apparent KD of MS2 coat protein: 28.8 nM
[4]
  apparent KD of MS2 coat protein: 37.4 nM

## CAGCUCGUGUGAGGAUAUGCCGCCGUUUCGGCUGCAGAAGGUGCUACGUUACAUGAGGAUCACCCAUGUCUCUGUUGUUUCGUU [salish99_SSNG1_r04_950] (Eterna round: R96, puzzle: Same State NG 1)
[1]
  apparent KD of MS2 coat protein: 18.2 nM

## CAGUACAUUCAAGGAUAUUCUCCAUGGAAAGUAGAAGAAGGUGAAACAUGAGGAUCACCCAUGUAGAAAGGAACAUUCGUACUG [Eternabot solution 34] (Eterna round: R96, puzzle: Same State NG 1)
Input ligand: FMN 200 uM
  apparent KD of MS2 coat protein: 181 nM
[1]
  apparent KD of MS2 coat protein: 147 nM
Input ligand: none
  apparent KD of MS2 coat protein: 310 nM

## CAUCUCCCUUUUACAUGAGGAUCACCCAUGUUUUUAUAUUGAGAGGAUAUCGUAUUUAGAAACAUCGAGAAGGCUCAUUUGUAU [JR_SSNG3_Sub072] (Eterna round: R96, puzzle: Same State NG 3)
Input ligand: FMN 200 uM
  apparent KD of MS2 coat protein: 83.2 nM
[1]
  apparent KD of MS2 coat protein: 89.1 nM
Input ligand: none
  apparent KD of MS2 coat protein: 153 nM

## CCAACAUACAAUUUAAGAUCACAUGAGGAUCACCCAUGUAUGCAGGAUAUCAGCUCGAUUAGAGCUGAGAAGGGCAAUUUAAUU [SSNG3/1-A2] (Eterna round: R96, puzzle: Same State NG 3)
Input ligand: FMN 200 uM
  apparent KD of MS2 coat protein: 89.6 nM
[1]
  apparent KD of MS2 coat protein: 151 nM
Input ligand: none
  apparent KD of MS2 coat protein: 216 nM

## CCGAUGCUUAUAAAACAUGAGGAUCACCCAUGUGAGACACAUGAGGAUAUGCAGGUCAAAGACUUGCAGAAGGCAUAGCGUCGG [JL SSNG3 3.88] (Eterna round: R96, puzzle: Same State NG 3)
[1]
  apparent KD of MS2 coat protein: 360 nM

## CCGAUGGUAUACUAGGAUAUGGGCGCCCUUACAUGAGGAUCACCCAUGUUUACACAAAUCCGCGGCCAGAAGGAGUUCAUGGGAG [Orgere] (Eterna round: R96, puzzle: Same State 2)
Input ligand: FMN 200 uM
  apparent KD of MS2 coat protein: 134 nM
[1]
  apparent KD of MS2 coat protein: 85.6 nM
Input ligand: none
  apparent KD of MS2 coat protein: 112 nM

## CCGAUGUAUGGAGGAUAUGGAGCCUUAUUGGCUCCAGAAGGCUAAUAACAUGAGGAUCACCCAUGUCGGCGGUCUAAUGACCGA [Eli NG1ss - 55] (Eterna round: R96, puzzle: Same State NG 1)
Input ligand: FMN 200 uM
  apparent KD of MS2 coat protein: 48.2 nM
[1]
  apparent KD of MS2 coat protein: 49.3 nM
Input ligand: none
  apparent KD of MS2 coat protein: 112 nM

## CCGGACAUGAGGAUCACCCAUGUCGACGGAUACCCUUGGGCAUAGGAUAUCUGGAAUUAAAAGAAAGAGAAGGGUGAUCCAAGG [Qusoinrege] (Eterna round: R96, puzzle: Same State NG 3)
Input ligand: FMN 200 uM
  apparent KD of MS2 coat protein: 23.6 nM
[1]
  apparent KD of MS2 coat protein: 40.8 nM
Input ligand: none
  apparent KD of MS2 coat protein: 40.4 nM

## CCGGAUAAUGGAGGAUAUGGAGCCUUAUUGGCUCCAGAAGGCUAACAUGAGGAUCACCCAUGUUUUCCGGCGGUCAAUAGACCG [Eli NG1ss - 63] (Eterna round: R96, puzzle: Same State NG 1)
Input ligand: FMN 200 uM
  apparent KD of MS2 coat protein: 10 nM
[1]
  apparent KD of MS2 coat protein: 11.4 nM
Input ligand: none
  apparent KD of MS2 coat protein: 18.2 nM

## CCGUAAAUGGAAGGAUAUGGAGCCUUAUUGGCUCCAGAAGGUUCAAUAACAUGAGGAUCACCCAUGUCGGCGGUCAAUAGACCG [Eli NG1ss - 79] (Eterna round: R96, puzzle: Same State NG 1)
Input ligand: FMN 200 uM
  apparent KD of MS2 coat protein: 15.3 nM
[1]
  apparent KD of MS2 coat protein: 33.7 nM
Input ligand: none
  apparent KD of MS2 coat protein: 41.7 nM

## CCGUAAUAUGGAGGAUAUGGAGCCUUAUUGGCUCCAGAAGGUCAUAAAACAUGAGGAUCACCCAUGUCGGCGGUCAAUAGACCG [Eli NG1ss - 77] (Eterna round: R96, puzzle: Same State NG 1)
[1]
  apparent KD of MS2 coat protein: 42.6 nM

## CCGUUCAAUAAACAUGAGGAUCACCCAUGUGAUAAUAAGGGUGAGGAUAUGCAUCUGAAACAGGUGCAGAAGGCAUAAGAGCGG [JL SSNG3 3.91] (Eterna round: R96, puzzle: Same State NG 3)
Input ligand: FMN 200 uM
  apparent KD of MS2 coat protein: 327 nM
[1]
  apparent KD of MS2 coat protein: 169 nM
Input ligand: none
  apparent KD of MS2 coat protein: 316 nM

## CCUUAACAGUGAGGAUAUCGUUGCGAUAAGUGACGAGAAGGCACUCAUGUGAAAUAAACAUACAUGAGGAUCACCCAUGUUGUG [Omei SS(NG)1 Bv5] (Eterna round: R96, puzzle: Same State NG 1)
Input ligand: FMN 200 uM
  apparent KD of MS2 coat protein: 34.4 nM
[1]
  apparent KD of MS2 coat protein: 40 nM
Input ligand: none
  apparent KD of MS2 coat protein: 44.2 nM

## CGAGGCGUACAUGAGGAUCACCCAUGUACCUAACAACAAAGCAAGGAUAUCCUGGCUAUAAUACAGGAGAAGGUGUGGUCCUUA [Eternabot solution 15] (Eterna round: R96, puzzle: Same State NG 3)
[1]
  apparent KD of MS2 coat protein: 107 nM
